Data taken from paper PMC3283691, “Low-Resolution Molecular Models Reveal the Oligomeric State of the PPAR and the Conformational Organization of Its Domains in Solution” (PLoS ONE, 2012).
Values joined by “and” are separate entries in the source; they are usually repeats but may differ in a detail not shown here. Equal entries are not always repeated.

Key:
[1] = biological target: the molecule itself; assay: native gel or EMSA; native polyacrylamide gel electrophoresis after gel filtration; RH from band mobility; hPPARγ LBD at 1 to 20 mg/mL
[2] = biological target: T1, human PPARγ LBD (amino acids 204–477) (Homo sapiens (Human), UniProt P37231-2); assay: SEC, native PAGE, DLS, SAXS
T1 chain: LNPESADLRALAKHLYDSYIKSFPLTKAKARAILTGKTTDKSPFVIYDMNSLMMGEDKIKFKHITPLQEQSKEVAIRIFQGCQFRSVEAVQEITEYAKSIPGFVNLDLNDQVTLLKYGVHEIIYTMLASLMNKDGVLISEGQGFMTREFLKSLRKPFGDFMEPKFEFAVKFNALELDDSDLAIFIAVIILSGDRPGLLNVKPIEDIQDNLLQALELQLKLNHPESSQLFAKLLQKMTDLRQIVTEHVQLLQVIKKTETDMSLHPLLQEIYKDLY

[3] = biological target: the molecule itself; assay: SEC; analytical gel filtration, Superdex 75 HR 10/30 (LBD constructs) or Superdex 200 HR 10/30 (DBD-LBD constructs); 20 mM Hepes-Na pH 8.0, 3 mM dithiothreitol, 200 mM NaCl, 5% glycerol; heterodimers formed from 20 mg/mL of each protein, 1:1 molar, 1 h at 4°C; RH from calibration standards
[4] = biological target: the molecule itself; assay: dynamic light scattering; DLS after gel filtration; hPPARγ LBD at different concentrations
[5] = biological target: T2, human PPARγ LBD (amino acids 204–477) (human, UniProt P37231-2 204-477); assay: SEC; analytical gel filtration, Superdex 75 HR 10/30 (LBD constructs) or Superdex 200 HR 10/30 (DBD-LBD constructs); 20 mM Hepes-Na pH 8.0, 3 mM dithiothreitol, 200 mM NaCl, 5% glycerol; heterodimers formed from 20 mg/mL of each protein, 1:1 molar, 1 h at 4°C; RH from calibration standards; details: both partners purified
T2 construct: Cloned in pET28a(+); His-tag removed with thrombin; also called hPPARγ LBD; PPAR LBD
T2 sequence (looked up): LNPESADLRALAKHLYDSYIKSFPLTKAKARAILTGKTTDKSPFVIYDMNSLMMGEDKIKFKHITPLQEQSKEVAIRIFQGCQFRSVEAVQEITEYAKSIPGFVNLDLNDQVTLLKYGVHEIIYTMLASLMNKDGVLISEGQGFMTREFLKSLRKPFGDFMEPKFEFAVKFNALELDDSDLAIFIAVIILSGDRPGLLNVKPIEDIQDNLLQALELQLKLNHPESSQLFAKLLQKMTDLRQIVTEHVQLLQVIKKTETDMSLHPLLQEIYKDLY

[6] = biological target: T3, human PPARγ DBD-LBD (amino acids 101–468) (Homo sapiens (Human), UniProt P37231-2); assay: SEC, SAXS, H/D exchange MS
T3 chain: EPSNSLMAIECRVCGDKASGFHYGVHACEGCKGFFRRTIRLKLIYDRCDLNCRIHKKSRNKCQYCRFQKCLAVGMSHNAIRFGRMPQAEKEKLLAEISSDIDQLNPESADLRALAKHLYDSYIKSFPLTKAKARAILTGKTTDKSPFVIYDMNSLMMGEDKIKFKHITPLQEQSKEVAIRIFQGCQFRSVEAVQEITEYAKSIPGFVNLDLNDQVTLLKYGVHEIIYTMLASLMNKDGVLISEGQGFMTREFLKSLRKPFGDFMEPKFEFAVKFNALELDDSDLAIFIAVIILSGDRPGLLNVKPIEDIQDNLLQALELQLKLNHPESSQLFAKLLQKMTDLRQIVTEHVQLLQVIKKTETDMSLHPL

B1: human RXRα LBD (amino acids 225–462) (domain or fragment, UniProt P19793 225-462, looked up)
chain: SANEDMPVERILEAELAVEPKTETYVEANMGLNPSSPNDPVTNICQAADKQLFTLVEWAKRIPHFSELPLDDQVILLRAGWNELLIASFSHRSIAVKDGILLATGLHVHRNSAHSAGVGAIFDRVLTELVSKMRDMQMDKTELGCLRAIVLFNPDSKGLSNPAEVEALREKVYASLEAYCKHKYPEQPGRFAKLLLRLPALRSIGLKCLEHLFFFKLIGDTPIDTFLMEMLEAPHQMT
notes: Cloned in pET28a(+); also called hRXRα LBD
stoichiometry N [1]: 4 and 2 | binding result [2]: binds | stoichiometry N [3]: 2 and 4 | stoichiometry N [4]: 4 and 2 | binding result [5]: binds

B2: human RXRα DBD-LBD (amino acids 135–462) (protein)
chain: CAICGDRSSGKHYGVYSCEGCKGFFKRTVRKDLTYTCRDNKDCLIDKRQRNRCQYCRYQKCLAMGMKREAVQEERQRGKDRNENEVESTSSANEDMPVERILEAELAVEPKTETYVEANMGLNPSSPNDPVTNICQAADKQLFTLVEWAKRIPHFSELPLDDQVILLRAGWNELLIASFSHRSIAVKDGILLATGLHVHRNSAHSAGVGAIFDRVLTELVSKMRDMQMDKTELGCLRAIVLFNPDSKGLSNPAEVEALREKVYASLEAYCKHKYPEQPGRFAKLLLRLPALRSIGLKCLEHLFFFKLIGDTPIDTFLMEMLEAPHQMT
binding result [6]: binds
